In PMC13379236 (Cell reports, 2026):

How the values were obtained:
ZYG11B-EloBC = ZYG11B-EloBC (Homo sapiens, UniProt Q9C0D3); experiment: MBP pull-down with substrate receptor module ZYG11B-EloBC; format: binding; details: R466A mutation of ZYG11B, recombinant purified proteins, Figure S9A
Description: Peptides corresponding to […] and […] were appended to the N terminus of maltose-binding protein (MBP) and cloned into pET-28a containing an N-terminal His6 tag followed by a TEV protease cleavage site. Fusion proteins were purified by Ni-NTA chromatography, digested with TEV protease, and passed over Ni-NTA resin again to remove TEV and the cleaved His6 tag. Final purification was performed by size-exclusion chromatography. The resulting proteins contained MBP fused to N-terminal Gly/N-degron overhangs. For pulldown experiments, approximately 100 μg MBP fusion protein was immobilized on 50 μL amylose resin and incubated with prey protein at a 1:1 molar ratio for 1 h at 4°C. Resin was washed three times, and bound proteins were eluted in sizing buffer supplemented with 20 mM maltose. Samples were analyzed by SDS-PAGE and Coomassie staining. Pulldown efficiency was quantified as the ratio of MBP–NLRP1 degron signal to ZYG11B signal in the same gel lane. […]
incubation of full-length Cyclin B1 without Gly/N-degron with ZYG11B–EloBC (top). SDS–PAGE analysis of the indicated fractions from the Superose 6 column (dashed lines) confirms complex formation (bottom) C, fluorescence anisotropy binding of ZYG11B-EloBC to indicated fluorescein-labeled peptides (left) and fitted equilibrium dissociation constants (right). […]

NLRP1 inflammasome = format: cell-based, human

ZYG11B-EloBC, sequence (Q9C0D3 whole entry, the tested form may be a part): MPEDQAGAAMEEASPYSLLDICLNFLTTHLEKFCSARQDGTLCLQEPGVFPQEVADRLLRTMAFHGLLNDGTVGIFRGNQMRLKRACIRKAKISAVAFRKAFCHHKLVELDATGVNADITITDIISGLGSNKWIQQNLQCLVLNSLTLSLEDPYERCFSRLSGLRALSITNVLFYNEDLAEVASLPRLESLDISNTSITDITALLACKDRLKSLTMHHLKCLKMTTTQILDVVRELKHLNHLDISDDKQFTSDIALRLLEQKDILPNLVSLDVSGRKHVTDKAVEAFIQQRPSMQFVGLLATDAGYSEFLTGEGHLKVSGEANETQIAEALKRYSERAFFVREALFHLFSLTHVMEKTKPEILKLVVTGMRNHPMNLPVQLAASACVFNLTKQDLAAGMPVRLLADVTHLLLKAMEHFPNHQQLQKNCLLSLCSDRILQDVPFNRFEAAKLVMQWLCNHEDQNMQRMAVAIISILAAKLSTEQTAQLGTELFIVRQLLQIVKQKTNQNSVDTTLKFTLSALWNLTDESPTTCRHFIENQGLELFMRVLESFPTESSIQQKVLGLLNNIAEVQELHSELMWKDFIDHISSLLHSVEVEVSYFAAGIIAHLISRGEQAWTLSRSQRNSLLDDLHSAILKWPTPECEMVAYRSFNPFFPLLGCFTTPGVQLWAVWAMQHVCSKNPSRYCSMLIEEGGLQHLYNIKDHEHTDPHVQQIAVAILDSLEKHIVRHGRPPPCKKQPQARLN
ZYG11B-EloBC, sequence (Q15370 whole entry partner, the tested form may be a part): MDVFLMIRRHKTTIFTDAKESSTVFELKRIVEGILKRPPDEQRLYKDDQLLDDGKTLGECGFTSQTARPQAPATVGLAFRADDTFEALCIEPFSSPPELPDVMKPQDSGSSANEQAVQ
ZYG11B-EloBC, sequence (Q15369 17-112 partner limits assumed): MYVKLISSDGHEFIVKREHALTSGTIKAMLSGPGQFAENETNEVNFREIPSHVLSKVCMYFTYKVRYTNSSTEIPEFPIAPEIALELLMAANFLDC

| Molecule | binding to ZYG11B-EloBC R466A mutant versus WT (ZYG11B-EloBC) | inflammasome activation of NLRP1 mutant upon HRV 3Cpro (NLRP1 inflammasome) |
| --- | --- | --- |
| NLRP1 Gly/N-degron: C-terminal fragment generated by 3C cleavage, which exposes the Gly/N-degron, begins at glycine-131 (protein) GSERRVLRQLPDTSGRRWREISASLLYQALPSSPDHESPSQESPNAPTSTAVLGSWGSPPQPSLAPREQEAPGTQWPLDETSGIYYTEIREREREKSEKGRPPWAAVVGTPPQAHTSLQPHHHPWEPSVRESLCSTWPWKNEDFNQKFTQLLLLQRPHPRSQDPLVKRSWPDYVEENRGHLIEIRDLFGPGLDTQEPRIVILQGAAGIGKSTLARQVKEAWGRGQLYGDRFQHVFYFSCRELAQSKVVSLAELIGKDGTATPAPIRQILSRPERLLFILDGVDEPGWVLQEPSSELCLHWSQPQPADALLGSLLGKTILPEASFLITARTTALQNLIPSLEQARWVEVLGFSESSRKEYFYRYFTDERQAIRAFRLVKSNKELWALCLVPWVSWLACTCLMQQMKRKEKLTLTSKTTTTLCLHYLAQALQAQPLGPQLRDLCSLAAEGIWQKKTLFSPDDLRKHGLDGAIISTFLKMGILQEHPIPLSYSFIHLCFQEFFAAMSYVLEDEKGRGKHSNCIIDLEKTLEAYGIHGLFGASTTRFLLGLLSDEGEREMENIFHCRLSQGRNLMQWVPSLQLLLQPHSLESLHCLYETRNKTFLTQVMAHFEEMGMCVETDMELLVCTFCIKFSRHVKKLQLIEGRQHRSTWSPTMVVLFRWVPVTDAYWQILFSVLKVTRNLKELDLSGNSLSHSAVKSLCKTLRRPRCLLETLRLAGCGLTAEDCKDLAFGLRANQTLTELDLSFNVLTDAGAKHLCQRLRQPSCKLQRLQLVSCGLTSDCCQDLASVLSASPSLKELDLQQNNLDDVGVRLLCEGLRHPACKLIRLGLDQTTLSDEMRQELRALEQEKPQLLIFSRRKPSVMTPTEGLDTGEMSNSTSSLKRQRLGSERAASHVAQANLKLLDVSKIFPIAEIAEESSPEVVPVELLCVPSPASQGDLHTKPLGTDDDFWGPTGPVATEVVDKEKNLYRVHFPVAGSYRWPNTGLCFVMREAVTVEIEFCVWDQFLGEINPQHSWMVAGPLLDIKAEPGAVEAVHLPHFVALQGGHVDTSLFQMAHFKEEGMLLEKPARVELHHIVLENPSFSPLGVLLKMIHNALRFIPVTSVVLLYHRVHPEEVTFHLYLIPSDCSIRKAIDDLEMKFQFVRIHKPPPLTPLYMGCRYTVSGSGSGMLEILPKELELCYRSPGEDQLFSEFYVGHLGSGIRLQVKDKKDETLVWEALVKPGDLMPATTLIPPARIAVPSPLDAPQLLHFVDQYREQLIARVTSVEVVLDKLHGQVLSQEQYERVLAENTRPSQMRKLFSLSQSWDRKCKDGLYQALKETHPHLIMELWEKGSKKGLLPLSS | relatively strong reduction |  |
| E133K: E133K mutation of NLRP1 (residue E3 of the Gly/N-degron) (protein) GSKRRVLRQLPDTSGRRWREISASLLYQALPSSPDHESPSQESPNAPTSTAVLGSWGSPPQPSLAPREQEAPGTQWPLDETSGIYYTEIREREREKSEKGRPPWAAVVGTPPQAHTSLQPHHHPWEPSVRESLCSTWPWKNEDFNQKFTQLLLLQRPHPRSQDPLVKRSWPDYVEENRGHLIEIRDLFGPGLDTQEPRIVILQGAAGIGKSTLARQVKEAWGRGQLYGDRFQHVFYFSCRELAQSKVVSLAELIGKDGTATPAPIRQILSRPERLLFILDGVDEPGWVLQEPSSELCLHWSQPQPADALLGSLLGKTILPEASFLITARTTALQNLIPSLEQARWVEVLGFSESSRKEYFYRYFTDERQAIRAFRLVKSNKELWALCLVPWVSWLACTCLMQQMKRKEKLTLTSKTTTTLCLHYLAQALQAQPLGPQLRDLCSLAAEGIWQKKTLFSPDDLRKHGLDGAIISTFLKMGILQEHPIPLSYSFIHLCFQEFFAAMSYVLEDEKGRGKHSNCIIDLEKTLEAYGIHGLFGASTTRFLLGLLSDEGEREMENIFHCRLSQGRNLMQWVPSLQLLLQPHSLESLHCLYETRNKTFLTQVMAHFEEMGMCVETDMELLVCTFCIKFSRHVKKLQLIEGRQHRSTWSPTMVVLFRWVPVTDAYWQILFSVLKVTRNLKELDLSGNSLSHSAVKSLCKTLRRPRCLLETLRLAGCGLTAEDCKDLAFGLRANQTLTELDLSFNVLTDAGAKHLCQRLRQPSCKLQRLQLVSCGLTSDCCQDLASVLSASPSLKELDLQQNNLDDVGVRLLCEGLRHPACKLIRLGLDQTTLSDEMRQELRALEQEKPQLLIFSRRKPSVMTPTEGLDTGEMSNSTSSLKRQRLGSERAASHVAQANLKLLDVSKIFPIAEIAEESSPEVVPVELLCVPSPASQGDLHTKPLGTDDDFWGPTGPVATEVVDKEKNLYRVHFPVAGSYRWPNTGLCFVMREAVTVEIEFCVWDQFLGEINPQHSWMVAGPLLDIKAEPGAVEAVHLPHFVALQGGHVDTSLFQMAHFKEEGMLLEKPARVELHHIVLENPSFSPLGVLLKMIHNALRFIPVTSVVLLYHRVHPEEVTFHLYLIPSDCSIRKAIDDLEMKFQFVRIHKPPPLTPLYMGCRYTVSGSGSGMLEILPKELELCYRSPGEDQLFSEFYVGHLGSGIRLQVKDKKDETLVWEALVKPGDLMPATTLIPPARIAVPSPLDAPQLLHFVDQYREQLIARVTSVEVVLDKLHGQVLSQEQYERVLAENTRPSQMRKLFSLSQSWDRKCKDGLYQALKETHPHLIMELWEKGSKKGLLPLSS |  | reduced inflammasome activation |
